From PMC10928986, “ARTC1-mediated VAPB ADP-ribosylation regulates calcium homeostasis” (Journal of Molecular Cell Biology, 2023)

Columns and labels:
[1] = molecular target: T1, hARTC1 in the presence of hARTC3 (hARTC1–hARTC3 heterodimer) (Homo sapiens, UniProt P52961); assay: etheno-NAD+ fluorescence kinetics; assay type: biochemical; settings: 20 mM Tris-HCl pH 8.0, 37°C; hARTC1 with hARTC3 added
T1 construct: gene ART1; GST-hARTC1 (N23-C295) with His-hARTC3 (N27-C362), both from E. coli; heterodimer by size exclusion; with Ecto-ADP-ribosyltransferase 3
T1 sequence (P52961 23-295): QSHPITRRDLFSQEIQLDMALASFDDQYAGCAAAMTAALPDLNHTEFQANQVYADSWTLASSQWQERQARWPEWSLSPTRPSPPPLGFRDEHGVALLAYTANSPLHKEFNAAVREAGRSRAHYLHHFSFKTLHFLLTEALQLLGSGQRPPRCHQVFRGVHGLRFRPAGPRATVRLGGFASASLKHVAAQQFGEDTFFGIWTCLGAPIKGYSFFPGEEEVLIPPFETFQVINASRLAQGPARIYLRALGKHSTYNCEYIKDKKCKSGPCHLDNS
T1 sequence (Q13508 27-362 partner): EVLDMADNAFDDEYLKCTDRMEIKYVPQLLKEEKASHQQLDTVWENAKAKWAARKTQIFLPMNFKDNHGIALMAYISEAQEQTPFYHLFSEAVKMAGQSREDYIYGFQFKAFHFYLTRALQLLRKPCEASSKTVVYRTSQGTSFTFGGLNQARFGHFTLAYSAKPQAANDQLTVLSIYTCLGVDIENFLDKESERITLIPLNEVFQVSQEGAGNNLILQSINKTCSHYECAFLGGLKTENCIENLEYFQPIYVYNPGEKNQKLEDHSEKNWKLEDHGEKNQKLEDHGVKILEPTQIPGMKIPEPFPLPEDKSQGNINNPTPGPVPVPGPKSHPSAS

[2] = substrate: NC(=O)c1ccc[n+]([C@@H]2O[C@H](COP(=O)(O)OP(=O)(O)OC[C@H]3O[C@@H](n4cnc5c4ncn4ccnc54)[C@H](O)[C@@H]3O)[C@@H](O)[C@H]2O)c1; assay: etheno-NAD+ NAD+ hydrolase fluorescence assay, Lineweaver-Burk; assay type: biochemical, Homo sapiens; settings: 20 mM Tris-HCl pH 8.0, 37°C, 60 min, etheno-NAD+ 0-10 μM, enzyme 10 μg/ml
His-hARTC3 (N27–C362) = molecular target: T2, His-hARTC3 (N27–C362) (human, UniProt Q13508 27-362); assay: pull-down; GST-hARTC1 (N23–C295) and His-hARTC3 (N27–C362) purified from E. coli, incubated with Glutathione Sepharose 4B and Ni-chelating Sepharose, 4°C, 2 h; washes in NETN 100; blots with anti-His and anti-GST; settings: both partners purified
T2 construct: human ARTC3 residues 27-362, printed as N27–C362 (N and C read as the N- and C-terminal limits), in pET-15b; also called His-ARTC3 (N27–C362); source: E. coli BL21 (Codon Plus), purified (Ni-chelating Sepharose); not shown: His tag, N-terminal, kept
T2 sequence (looked up): T1 sequence (Q13508 27-362 partner)

NC(=O)c1ccc[n+]([C@@H]2O[C@H](COP(=O)(O)OP(=O)(O)OC[C@H]3O[C@@H](n4cnc5c4ncn4ccnc54)[C@H](O)[C@@H]3O)[C@@H](O)[C@H]2O)c1 [etheno-NAD^+]
etheno-NAD+ fluorescence kinetics [1]: Enzymatic kinetics for etheno-NAD^+ of hARTC1 in the presence (green) or absence (red)

B1: hARTC5 (GST-ARTC5 (N23–C291)) (Homo sapiens) (protein)
chain: VPILPLGLAPDTFDDTYVGCAEEMEEKAAPLLKEEMAHHALLRESWEAAQETWEDKRRGLTLPPGFKAQNGIAIMVYTNSSNTLYWELNQAVRTGGGSRELYMRHFPFKALHFYLIRALQLLRGSGGCSRGPGEVVFRGVGSLRFEPKRLGDSVRLGQFASSSLDKAVAHRFGNATLFSLTTCFGAPIQAFSVFPKEREVLIPPHEVFLVTRFSQDGAQSLVTLWSYNQTCSHFNCAYLGGEKRRGCVSAPGALGTGDLHMTKRHLQQP
Km [2]: 56.78 ± 11.90 µM

B2: GST-hARTC1 (N23–C295) (domain or fragment, human, UniProt P52961 23-295, looked up)
chain: T1 sequence (P52961 23-295)
notes: human ARTC1 residues 23-295, printed as N23–C295 (N and C read as the N- and C-terminal limits), in pGEX-4T-1; also called GST-ARTC1 (N23–C295); source: E. coli BL21 (Codon Plus), purified (Glutathione Sepharose 4B); not shown: GST, N-terminal, kept
Km [2]: 11.59 ± 1.57 µM | binding result (His-hARTC3 (N27–C362)): binds
